The results in this text go back to IntAct's records for PubMed 32073997.

First the molecules themselves.
B1: AKT-interacting protein (Homo sapiens), Q9H8T0 (parent)
chain: MNPFWSMSTSSVRKRSEGEEKTLTGDVKTSPPRTAPKKQLPSIPKNALPITKPTSPAPAAQSTNGTHASYGPFYLEYSLLAEFTLVVKQKLPGVYVQPSYRSALMWFGVIFIRHGLYQDGVFKFTVYIPDNYPDGDCPRLVFDIPVFHPLVDPTSGELDVKRAFAKWRRNHNHIWQVLMYARRVFYKIDTASPLNPEAAVLYEKDIQLFKSKVVDSVKVCTARLFDQPKIEDPYAISFSPWNPSVHDEAREKMLTQKKPEEQHNKSVHVAGLSWVKPGSVQPFSKEEKTVAT
partner: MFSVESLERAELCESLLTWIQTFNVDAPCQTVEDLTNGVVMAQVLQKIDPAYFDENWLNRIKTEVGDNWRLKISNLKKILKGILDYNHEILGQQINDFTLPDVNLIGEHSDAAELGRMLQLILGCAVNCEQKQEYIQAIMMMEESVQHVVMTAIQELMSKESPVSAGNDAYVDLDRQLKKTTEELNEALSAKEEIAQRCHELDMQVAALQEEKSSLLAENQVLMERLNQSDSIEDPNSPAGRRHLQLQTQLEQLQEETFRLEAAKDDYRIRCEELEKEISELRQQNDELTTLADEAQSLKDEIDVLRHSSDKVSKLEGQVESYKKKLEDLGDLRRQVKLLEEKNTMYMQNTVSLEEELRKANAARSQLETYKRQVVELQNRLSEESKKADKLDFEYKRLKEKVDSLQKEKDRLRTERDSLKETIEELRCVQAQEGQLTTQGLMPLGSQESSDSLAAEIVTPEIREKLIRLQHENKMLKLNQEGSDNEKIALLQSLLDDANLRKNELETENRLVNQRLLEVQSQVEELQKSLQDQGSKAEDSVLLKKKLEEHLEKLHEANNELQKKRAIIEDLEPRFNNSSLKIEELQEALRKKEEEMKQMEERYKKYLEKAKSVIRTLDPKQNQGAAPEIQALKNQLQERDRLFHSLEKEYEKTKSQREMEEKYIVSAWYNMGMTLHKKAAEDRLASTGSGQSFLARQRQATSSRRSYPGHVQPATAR
B2: AKT-interacting protein (Homo sapiens), Q9H8T0 (parent)
chain: B1 chain
partner: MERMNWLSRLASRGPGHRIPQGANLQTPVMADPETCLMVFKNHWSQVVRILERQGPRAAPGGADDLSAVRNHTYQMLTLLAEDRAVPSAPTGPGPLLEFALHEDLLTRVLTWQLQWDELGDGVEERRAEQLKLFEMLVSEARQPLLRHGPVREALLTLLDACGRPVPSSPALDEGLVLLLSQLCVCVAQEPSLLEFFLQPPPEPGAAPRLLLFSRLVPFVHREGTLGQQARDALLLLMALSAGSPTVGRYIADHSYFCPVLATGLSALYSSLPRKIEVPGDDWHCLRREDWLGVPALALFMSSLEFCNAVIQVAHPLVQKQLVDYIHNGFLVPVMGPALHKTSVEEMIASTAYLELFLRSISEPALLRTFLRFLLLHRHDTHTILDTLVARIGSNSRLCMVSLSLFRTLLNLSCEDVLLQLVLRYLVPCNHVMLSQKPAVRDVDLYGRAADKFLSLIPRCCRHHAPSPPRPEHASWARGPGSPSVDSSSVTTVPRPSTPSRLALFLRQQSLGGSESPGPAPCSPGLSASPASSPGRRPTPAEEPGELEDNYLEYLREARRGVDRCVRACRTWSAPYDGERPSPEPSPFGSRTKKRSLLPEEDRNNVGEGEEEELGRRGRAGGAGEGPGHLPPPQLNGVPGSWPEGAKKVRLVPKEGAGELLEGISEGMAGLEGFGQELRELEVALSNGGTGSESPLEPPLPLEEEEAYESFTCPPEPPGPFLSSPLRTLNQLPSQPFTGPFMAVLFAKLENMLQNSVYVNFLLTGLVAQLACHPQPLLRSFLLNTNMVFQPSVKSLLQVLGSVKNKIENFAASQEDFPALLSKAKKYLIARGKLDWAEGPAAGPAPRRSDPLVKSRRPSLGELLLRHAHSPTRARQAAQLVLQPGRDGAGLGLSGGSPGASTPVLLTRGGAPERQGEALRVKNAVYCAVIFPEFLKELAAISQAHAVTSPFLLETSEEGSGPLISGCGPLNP
B3: AKT-interacting protein (Homo sapiens), Q9H8T0 (parent)
chain: B1 chain
partner: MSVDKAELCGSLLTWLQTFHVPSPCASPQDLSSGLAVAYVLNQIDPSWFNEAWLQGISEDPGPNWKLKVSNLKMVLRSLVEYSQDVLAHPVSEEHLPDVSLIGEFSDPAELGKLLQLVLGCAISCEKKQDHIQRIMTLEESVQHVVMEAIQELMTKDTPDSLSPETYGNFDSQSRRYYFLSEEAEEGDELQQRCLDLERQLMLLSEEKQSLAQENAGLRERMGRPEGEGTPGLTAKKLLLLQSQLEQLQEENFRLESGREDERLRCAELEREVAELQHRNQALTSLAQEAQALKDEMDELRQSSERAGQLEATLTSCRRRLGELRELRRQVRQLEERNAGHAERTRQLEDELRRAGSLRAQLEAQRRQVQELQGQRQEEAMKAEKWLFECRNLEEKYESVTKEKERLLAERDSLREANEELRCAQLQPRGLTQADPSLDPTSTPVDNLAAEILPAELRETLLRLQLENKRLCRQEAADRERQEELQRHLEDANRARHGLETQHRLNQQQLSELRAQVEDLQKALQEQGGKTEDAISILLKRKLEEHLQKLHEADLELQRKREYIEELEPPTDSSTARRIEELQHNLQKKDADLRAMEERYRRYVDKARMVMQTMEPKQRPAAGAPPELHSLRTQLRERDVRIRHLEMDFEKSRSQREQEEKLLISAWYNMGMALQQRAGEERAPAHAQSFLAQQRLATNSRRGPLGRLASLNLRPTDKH

One test covers variants of B1. Particulars: with hook3_human HOOK3, Q86VS8.
As to MNPFWSMSTSSVRKRSEGEEKTLTGDVKTSPPRTAPKKQLPSIPKNALPITKPTSPAPAAQSTNGTHASYGPFYLEYSLLAEFTLVVKQKLPGVYVQPSYRSALMAAGVIFIRHGLYQDGVFKFTVYIPDNYPDGDCPRLVFDIPVFHPLVDPTSGELDVKRAFAKWRRNHNHIWQVLMYARRVFYKIDTASPLNPEAAVLYEKDIQLFKSKVVDSVKVCTARLFDQPKIEDPYAISFSPWNPSVHDEAREKMLTQKKPEEQHNKSVHVAGLSWVKPGSVQPFSKEEKTVAT [W106A;F107A], the “effect of a mutation on the interaction” value is listed as “decreasing interaction strength”.

Variants of B2 are the subject of the next test. Particulars: with FHIP1B.
MNPFWSMSTSSVRKRSEGEEKTLTGDVKTSPPRTAPKKQLPSIPKNALPITKPTSPAPAAQSTNGTHASYGPFYLEYSLLAEFTLVVKQKLPGVYVQPSYRSALMAAGVIFIRHGLYQDGVFKFTVYIPDNYPDGDCPRLVFDIPVFHPLVDPTSGELDVKRAFAKWRRNHNHIWQVLMYARRVFYKIDTASPLNPEAAVLYEKDIQLFKSKVVDSVKVCTARLFDQPKIEDPYAISFSPWNPSVHDEAREKMLTQKKPEEQHNKSVHVAGLSWVKPGSVQPFSKEEKTVAT [W106A;F107A]: the “effect of a mutation on the interaction” value was “disrupting interaction strength”.

A further test covers variants of B3. Particulars: with hook2_human HOOK2, Q96ED9.
For the variant MNPFWSMSTSSVRKRSEGEEKTLTGDVKTSPPRTAPKKQLPSIPKNALPITKPTSPAPAAQSTNGTHASYGPFYLEYSLLAEFTLVVKQKLPGVYVQPSYRSALMAAGVIFIRHGLYQDGVFKFTVYIPDNYPDGDCPRLVFDIPVFHPLVDPTSGELDVKRAFAKWRRNHNHIWQVLMYARRVFYKIDTASPLNPEAAVLYEKDIQLFKSKVVDSVKVCTARLFDQPKIEDPYAISFSPWNPSVHDEAREKMLTQKKPEEQHNKSVHVAGLSWVKPGSVQPFSKEEKTVAT [W106A;F107A], the “effect of a mutation on the interaction” value is “disrupting interaction strength”.
